Reference: patent publication US6884600B1, “Protein phosphatase-1 catalytic subunit interactions” (Medical Research Council London, priority 1996, dated 2005)

B1: GST-GM-(E2-P243): GST fusion of amino acids 2-243 of human GM (protein)
chain: EPSEVPSQISKDNFLEVPNLSDSLCEDEEVTFQPGFSPQPSRRGSDSSEDIYLDTPSSGTRRVSFADSFGFNLVSVKEFDCWELPSASTTFDLGTDIFHTEEYVLAPLFDLPSSKEDLMQQLQIQKAILESTESLLGSTSIKGIIRVLNVSFEKLVYVRMSLDDWQTHYDILAEYVPNSCDGETDQFSFKIVLVPPYQKDGSKVEFCIRYETSVGTFWSNNNGTNYTFICQKKEQEPEPVKP
modifications: left off: a dimerising Fc or GST
notes: GST fusion of amino acids 2-243 of human GM
B2: GST-GM-(E2-D118): GST fusion of amino acids 2-118 of human GM (protein)
chain: EPSEVPSQISKDNFLEVPNLSDSLCEDEEVTFQPGFSPQPSRRGSDSSEDIYLDTPSSGTRRVSFADSFGFNLVSVKEFDCWELPSASTTFDLGTDIFHTEEYVLAPLFDLPSSKEDQLNSS
modifications: left off: a dimerising Fc or GST
notes: GST fusion of amino acids 2-118 of human GM
B3: M110-(L24-Y496): rat aorta M110 fragment, residues 24-496 (protein, UniProt Q10728 24-496, looked up, fragment)
chain: LEPPVVKRQKTKVKFDDGAVFLAACSSGDTDEVLKLLHRGADINYANVDGLTALHQACIDDNVDMVKFLVENGANINQPDNEGWIPLHAAASCGYLDIAEFLIGQGAHVGAVNSEGDTPLDIAEEEAMEELLQNEVNRQGVDIEAARKEEERIMLRDARQWLNSGHISDVRHAKSGGTALHVAAAKGYTEVLKLLIQAGYDVNIKDYDGWTPLHAAAHWGKEEACRILVDNLCDMETVNKVGQTAFDVADEDILGYLEELQKKQNLLHSEKRDKKSPLIESTANMENNQPQKTFKNKETLIIEPEKNASRIESLEQEKADEEEEGKKDESSCSSEEDEEDDSESEAETDKTKPMASVTNAHTASTQAAPAAVTTPTLSSNQGTPTSPVKKFPTSTTKISPKEEERKDESPASWRLGLRKTGSYGALAEITASKEAQKEKDTAGVIRSASSPRLSSSLDNKEKEKDNKGTRLAY
B4: M110-(M1-A150): rat aorta M110 fragment, residues 1-150 (protein, UniProt Q10728 1-150, looked up, fragment)
chain: MKMADAKQKRNEQLKRWIGSETDLEPPVVKRQKTKVKFDDGAVFLAACSSGDTDEVLKLLHRGADINYANVDGLTALHQACIDDNVDMVKFLVENGANINQPDNEGWIPLHAAASCGYLDIAEFLIGQGAHVGAVNSEGDTPLDIAEEEA
B5: GST-M110-(M1-S477): GST fusion of rat aorta M110 residues 1-477 (protein)
chain: MKMADAKQKRNEQLKRWIGSETDLEPPVVKRQKTKVKFDDGAVFLAACSSGDTDEVLKLLHRGADINYANVDGLTALHQACIDDNVDMVKFLVENGANINQPDNEGWIPLHAAASCGYLDIAEFLIGQGAHVGAVNSEGDTPLDIAEEEAMEELLQNEVNRQGVDIEAARKEEERIMLRDARQWLNSGHISDVRHAKSGGTALHVAAAKGYTEVLKLLIQAGYDVNIKDYDGWTPLHAAAHWGKEEACRILVDNLCDMETVNKVGQTAFDVADEDILGYLEELQKKQNLLHSEKRDKKSPLIESTANMENNQPQKTFKNKETLIIEPEKNASRIESLEQEKADEEEEGKKDESSCSSEEDEEDDSESEAETDKTKPMASVTNAHTASTQAAPAAVTTPTLSSNQGTPTSPVKKFPTSTTKISPKEEERKDESPASWRLGLRKTGSYGALAEITASKEAQKEKDTAGVIRSASSPRLSSAANSISSLIHRD
modifications: left off: a dimerising Fc or GST

Experiments:
[1] = biological target: PP1c (γ1-isoform) (Homo sapiens, UniProt P36873); test: Far Western: GST-GM fusion proteins probed with digoxygenin-labelled PP1γ; format: binding; settings: GST-fusion proteins on blot probed with digoxygenin-labelled PP1γ
Description: GST-GM fusion proteins were electrophoresed on 10% SDS/polyacrylamide gels and stained with Coomassie blue (lanes 1-3) or, after transfer to nitrocellulose, probed with digoxygenin-labelled PP1γ (lanes 4-6) as in [9]. Lanes 1 and 4, GST-GM-(E2-D118); Lanes 2 and 5, GST-GM-(H100-P350); Lanes 3 and 6, GST. The positions of the marker proteins glycogen phosphorylase (97 kDa), bovine serum albumin (66 kDa), ovalbumin (43 kDa), carbonic anhydrase (29 kDa) and soybean trypsin inhibitor (20 kDa) are indicated.
(§1) The myosin-associated form of PP1 (PP1M) was from chicken gizzard and the glycogen-associated form of PP1 (PP1G) from rabbit skeletal muscle. The β isoform of PP1c was released from PP1G by incubation for 2 hours in 2M LiBr, then purified by gel-filtration on a 30×1 cm column of Superose 12 (Pharmacia, Milton Keynes, U.K.) in the presence of 0.5M LiBr. Glycogen protein particles from rat liver were used as the source of hepatic PP1G Digoxygenin-labelled PP1c (γ1-isoform, hereafter termed PP1) was prepared as in [9]. GL was expressed in E. coli as a glutathione-S-transferase (GST) fusion protein [7], termed GST-GL. The catalytic subunit of PP2A from bovine heart (PP2AC) was provided by Dr R. MacKintosh in this Unit. The phosphorylatable myosin light chain (MLC20) and heavy meromyosin from chicken gizzard were a gift from Dr M. Ikebe (Case Western Reserve University, Cleveland, USA). Thrombin and benzamidine-Agarose were purchased from Sigma (Poole, UK).
The amino acid sequence of rat hepatic GL is 23% identical (39% similar) to residues 1-286 of GM from human skeletal muscle. […] Fusion proteins in which GST was linked to fragments of GM were therefore tested for their ability to bind to PP1c. […] We therefore synthesised GM-(G63-T93) and examined its effect on the enzymatic properties of PP1GL, the form of PP1 associated with rat hepatic protein-glycogen particles.

[2] = biological target: T1, PP1c (Oryctolagus cuniculus, UniProt P62143); test: MLC20 (myosin P-light chain) phosphatase activity of PP1c; format: biochemical
T1 construct: from tissue; host or cells: rabbit skeletal muscle (PP1G dissociated with LiBr)
Procedure: (§2) A,B; Effects of M110-(M1-E309) (closed circles), M110-(M1-F38) (open circles) and M110-(D39-E309) (open triangles) on the MLC20 phosphatase […] and phosphorylase phosphatase (B) activities of PP1c were measured after incubating PP1c for 15 minutes at 30° C. with each fragment. The results are presented as a percentage of those obtained in experiments where the M110 fragments were omitted.
(§3) C,D; The effect of M110-(M1-A150) (open circles) and M110-(L24-Y496) (closed circles) on the MLC20 phosphatase (C) and phosphorylase phosphatase (D) activities of PP1c were measured as in A,B.
(A) The MLC20 phosphatase activity of PP1c was assayed after incubation for 15 minutes at 30° C. in the presence or absence of 1 μM GM-(G63-T93) and either 0.1 μM M110-(M1-F38) or 0.1 nM M110-(M1-E309).
(1-38, open circles) or M110[M1-K35] (1-35, closed circles) were incubated with PP1c for 15 min at 30° C. and reactions started with the ^32P-labelled MLC20 substrate. The results are expressed as a % of the activity determined in control incubations where the M110 peptides were omitted (100%). Similar results were obtained in three separate experiments.
as §1
(§4) ^32P-labelled rabbit skeletal muscle phosphorylase a (containing 1.0 mol phosphate per mol subunit) was prepared by phosphorylation with phosphorylase kinase, ^32P-labelled rabbit skeletal muscle glycogen synthase (containing 1.5 mol/mol subunit in the sites 3 region) was prepared by phosphorylation with glycogen synthase kinase-3 [24]). ^32P-labelled chicken gizzard MLC20 and ^32P-labelled chicken gizzard heavy meromyosin (containing 1.0 mol phosphate per mol subunit) were prepared by phosphorylation with smooth muscle myosin light chain kinase. The dephosphorylation of phosphorylase a (10 μM), glycogen synthase (1 μM) and MLC20 (1 μM) and heavy meromyosin (1 μM) was carried out as in [24]. One unit of activity (U) was that amount which released […] of phosphate in one minute.
(§5) PP1c was isolated from the rabbit skeletal muscle PP1-GM complex as described previously (Johnson et al, 1996). Glycogen particles isolated from rat liver (Schelling el al, 1988) served as the source of PP1-GL. The dephosphorylation of glycogen phosphorylase (10 μM) and the isolated MLC20 of smooth muscle myosin (1 μM) by PP1c was carried out as described previously (Cohen et al., 1988; Alessi et al., 1992).
^32P-labelled myosin P-light chains containing 1.0 mol phosphate per mol subunit was prepared by phosphorylation with smooth muscle myosin light chain kinase. The dephosphorylation of myosin P-light chain (1 μM) was carried out as in [4] and one unit of activity (U) was that amount which catalysed the release of 1 μmole of phosphate in one min. When assaying PP1M in immunoprecipitates from the myofibrillar extracts, the tubes were shaken continuously and 3 nM okadaic acid was included to inhibit any PP2A present.

[3] = biological target: T1, PP1c; test: Phosphorylase phosphatase activity of PP1c; format: biochemical, rabbit
Procedure: as §2, §3
(B) The phosphorylase phosphatase activity of PP1c was assayed as in A in the presence or absence of 1 μM GM-(G63-T93) and 1.0 nM M110-(M1-E309). The results are presented (SEM for three experiments) as a percentage of the PP1c activity measured in the absence of GM-(63-T93), M110-(M1-F38) or M110-(M1-E309).
as §1, §4, §5

[4] = biological target: T2, myosin (Gallus gallus, UniProt P10587); test: Myosin binding assay (pelleting with myosin); set-up: species or system chicken; settings: myosin 1 μM, 15 min 0° C.
T2 construct: from tissue; host or cells: chicken gizzard
Procedure: The PP1 catalytic subunit (PP1c), PP1M, or PP1M lacking the M21 subunit, PP1M(ΔM21), each at 30 nM, were incubated for 15 min at 0° C. with 1 μM myosin and centrifuged (see Methods of Example 3). […] The results shown are the average (±S.E.M.) for three separate experiments each assayed in duplicate.
(A); PP1M, M110-(M1-S477) and GST-M110-(M377-K976), each at 30 nM were incubated for 15 min at 0° C. with 1 μM myosin and centrifuged. The supernatants (S), resuspended pellets (P) and the suspension before centrifugation (T, total) were electrophoresed on 12% SDS/polyacrylamide gels, transferred to nitrocellulose and immunoblotted with antibodies raised against the PP1M holoenzyme. No protein was pelleted in the absence of myosin (not shown). The positions of the marker proteins myosin heavy chain (200 kDa), glycogen phosphorylase (97 kDa), bovine serum albumin (66 kDa), ovalbumin (43 kDa), carbonic anhydrase (29 kDa) and soybean trypsin inhibitor (20 kDa) are indicated. (B) The experiments were carried out as in (A), except that the M110 fragments and M21 subunit were used at 100 nM, the 8.5 kDa M110-(K933-I1004) fragment was electrophoresed on a 16.5% polyacrylamide gel and immunoblotting was carried out with affinity purified antibodies (see Methods). A small amount of M110-(R714-I1004) pelleted in the absence of myosin. […] No other protein was pelleted in the absence of myosin.
(A); Myosin (1 μM) was mixed with 50 μM, 20 μM or 10 μM M21 subunit to give the molar ratios M21:myosin dimer indicated. After 15 min at 0° C., the solutions were centrifuged and the supernatants (S), resuspended pellets (P) and the suspension before centrifugation (T, total) were electrophoresed on 12% SDS/polyacrylamide gels and stained with Coomassie blue. The positions of the myosin heavy chain (MHC) and the M21 subunit are indicated. The myosin light chains migrate faster than the M21 subunit and are not visible at these loadings.
Myosin binding assays. Myosin (0.5 mg/ml, 1 μM in terms of myosin heavy chains) in 10 mM Hepes pH 7.5, 50 mM KCl, 5 mM MgCl2, 0.1% (by vol) 2-mercaptoethanol, was mixed with PP1M, M21 subunit, or fragments of the M110 and M21 subunits, at the concentrations indicated in figure legends. After incubation for 15 min at 0° C., the solutions were centrifuged for 2 min at 13,000×g, the supernatants removed, and the pellets washed twice in 10 mM Hepes pH 7.5, 50 mM KCl, 5 mM MgCl2, 0.1% (by vol) 2-mercaptoethanol before resuspension in 50 mM Tris-HCl pH 7.5, 0.1 mM EGTA, 0.03% (by mass) Brij 35, 0.6 M NaCl, 0.1% (by vol) 2-mercaptoethanol. Aliquots of the supernatant, the resuspended pellet and the suspension before centrifugation were either assayed for myosin P-light chain phosphatase activity or denatured in SDS and analysed by SDS/polyacrylamide gel electrophoresis.

T1 sequence (P62143 whole entry): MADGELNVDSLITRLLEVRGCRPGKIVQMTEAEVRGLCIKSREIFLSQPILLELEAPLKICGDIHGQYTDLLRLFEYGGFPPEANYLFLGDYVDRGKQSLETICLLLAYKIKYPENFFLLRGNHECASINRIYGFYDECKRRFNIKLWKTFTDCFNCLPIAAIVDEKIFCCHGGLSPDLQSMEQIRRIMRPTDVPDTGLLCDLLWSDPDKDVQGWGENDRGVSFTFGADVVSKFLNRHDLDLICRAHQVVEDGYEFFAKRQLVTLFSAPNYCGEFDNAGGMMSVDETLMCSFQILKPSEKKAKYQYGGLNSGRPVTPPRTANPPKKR
Sequence of PP1c (γ1-isoform) (P36873 whole entry, the tested form may be a part, canonical isoform): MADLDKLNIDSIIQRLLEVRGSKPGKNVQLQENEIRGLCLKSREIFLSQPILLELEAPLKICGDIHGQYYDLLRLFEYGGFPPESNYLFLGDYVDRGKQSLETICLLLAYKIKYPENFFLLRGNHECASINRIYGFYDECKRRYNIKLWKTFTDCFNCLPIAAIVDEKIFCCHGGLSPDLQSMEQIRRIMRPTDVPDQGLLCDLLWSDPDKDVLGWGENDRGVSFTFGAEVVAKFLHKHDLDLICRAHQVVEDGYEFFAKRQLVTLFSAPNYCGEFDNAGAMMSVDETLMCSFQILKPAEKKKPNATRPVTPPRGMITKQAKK
T2 sequence (P10587 whole entry): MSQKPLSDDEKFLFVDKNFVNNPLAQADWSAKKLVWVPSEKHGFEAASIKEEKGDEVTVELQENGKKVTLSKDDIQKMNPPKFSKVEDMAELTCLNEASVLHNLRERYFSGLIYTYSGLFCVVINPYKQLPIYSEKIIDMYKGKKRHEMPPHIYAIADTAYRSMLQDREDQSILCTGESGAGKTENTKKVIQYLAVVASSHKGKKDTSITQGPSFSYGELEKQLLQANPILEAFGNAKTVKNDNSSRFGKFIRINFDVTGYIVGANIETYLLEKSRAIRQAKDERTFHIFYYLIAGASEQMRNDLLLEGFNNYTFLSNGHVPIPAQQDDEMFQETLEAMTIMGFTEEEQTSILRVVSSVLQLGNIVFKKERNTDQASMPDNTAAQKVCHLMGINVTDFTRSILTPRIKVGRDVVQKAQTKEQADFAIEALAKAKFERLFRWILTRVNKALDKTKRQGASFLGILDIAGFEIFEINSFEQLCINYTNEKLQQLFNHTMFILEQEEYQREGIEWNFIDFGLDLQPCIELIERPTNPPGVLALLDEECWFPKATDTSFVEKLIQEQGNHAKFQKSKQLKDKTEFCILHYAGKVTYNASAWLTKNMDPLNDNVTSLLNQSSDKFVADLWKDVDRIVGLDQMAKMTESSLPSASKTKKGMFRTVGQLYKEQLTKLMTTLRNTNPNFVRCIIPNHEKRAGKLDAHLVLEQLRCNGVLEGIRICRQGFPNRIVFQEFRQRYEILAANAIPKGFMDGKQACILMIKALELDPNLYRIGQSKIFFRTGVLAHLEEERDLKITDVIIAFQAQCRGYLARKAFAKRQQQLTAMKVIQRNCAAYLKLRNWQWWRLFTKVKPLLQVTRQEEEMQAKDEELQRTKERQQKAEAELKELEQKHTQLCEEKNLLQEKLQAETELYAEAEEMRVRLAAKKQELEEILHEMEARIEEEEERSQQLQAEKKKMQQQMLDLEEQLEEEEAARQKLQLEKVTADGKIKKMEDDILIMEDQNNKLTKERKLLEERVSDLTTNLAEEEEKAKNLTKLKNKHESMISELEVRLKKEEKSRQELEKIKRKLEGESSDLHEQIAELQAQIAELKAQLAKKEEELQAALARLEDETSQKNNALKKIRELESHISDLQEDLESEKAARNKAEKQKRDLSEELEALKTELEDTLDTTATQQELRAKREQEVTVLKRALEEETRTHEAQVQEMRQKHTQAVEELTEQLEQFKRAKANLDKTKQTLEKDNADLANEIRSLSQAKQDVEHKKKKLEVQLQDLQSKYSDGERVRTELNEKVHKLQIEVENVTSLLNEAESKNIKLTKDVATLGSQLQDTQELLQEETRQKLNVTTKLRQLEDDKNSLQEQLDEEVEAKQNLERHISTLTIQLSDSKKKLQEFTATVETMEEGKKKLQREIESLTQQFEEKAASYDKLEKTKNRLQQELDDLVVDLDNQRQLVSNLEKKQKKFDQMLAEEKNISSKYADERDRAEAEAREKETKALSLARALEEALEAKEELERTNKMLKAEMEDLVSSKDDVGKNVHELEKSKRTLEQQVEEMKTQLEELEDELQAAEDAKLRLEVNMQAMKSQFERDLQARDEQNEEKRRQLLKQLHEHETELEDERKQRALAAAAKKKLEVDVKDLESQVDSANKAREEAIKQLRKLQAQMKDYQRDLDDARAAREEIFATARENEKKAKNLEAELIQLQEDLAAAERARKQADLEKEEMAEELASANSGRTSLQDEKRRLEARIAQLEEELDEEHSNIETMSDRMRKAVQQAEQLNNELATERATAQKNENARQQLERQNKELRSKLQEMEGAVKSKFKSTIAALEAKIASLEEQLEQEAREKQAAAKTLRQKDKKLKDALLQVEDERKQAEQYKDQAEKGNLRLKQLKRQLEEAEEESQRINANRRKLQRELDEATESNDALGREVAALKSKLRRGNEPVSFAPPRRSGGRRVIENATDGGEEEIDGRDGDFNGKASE
T2 sequence (P02612 whole entry partner): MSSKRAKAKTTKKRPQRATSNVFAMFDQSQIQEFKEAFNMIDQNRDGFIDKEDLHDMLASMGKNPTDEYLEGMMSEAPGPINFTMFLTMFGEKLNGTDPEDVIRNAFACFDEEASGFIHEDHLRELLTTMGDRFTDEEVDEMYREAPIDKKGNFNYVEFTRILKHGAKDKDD
T2 sequence (P02607 whole entry partner): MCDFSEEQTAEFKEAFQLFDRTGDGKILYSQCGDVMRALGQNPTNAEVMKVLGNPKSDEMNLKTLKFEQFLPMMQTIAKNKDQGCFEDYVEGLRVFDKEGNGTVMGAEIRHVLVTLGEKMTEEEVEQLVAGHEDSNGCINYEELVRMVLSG

Row | Molecule | interaction with PP1 in Far Western experiments [1] | effect on the MLC20 phosphatase activity of PP1c [2] | effect on the phosphorylase phosphatase activity of PP1c [3] | concentration needed to modulate the specificity of PP1c compared to thrombin-cleaved M110-(M1-E309) [2] | binding to myosin [4]
1 | B1 | interacted with PP1 | – | – | – | –
2 | B2 | interacted with PP1 | – | – | – | –
3 | B3 | – | less effective than M110-(M1-A150) or M110-(M1-E309) in stimulating the MLC20 phosphatase activity of PP1c | inhibited the phosphorylase phosphatase activity of PP1c in a similar manner to M110-(M1-A150) | – | –
4 | B4 | – | modified the specificity of PP1 similarly | modified the specificity of PP1 similarly | 10 fold higher | –
5 | B5 | – | stimulated the PP1c-catalysed dephosphorylation of the myosin P-light chain | inhibited the dephosphorylation of glycogen phosphorylase | – | neither GST-M110-(M1-S477) nor GST-M110-(M1-E309) bound to myosin
